Measurements reported in US20140057857A1.
pIC50, pKd: −log10 of the molar value.

How the values were obtained:
GST-Mcl-1 [1] = assay: fluorescence polarization assay, labeled peptide on GST-Mcl-1
GST-Bcl-xL = assay: fluorescence polarization assay, labeled peptide on GST-Bcl-xL
GST-Mcl-1 [2] = assay: competitive FP assay on Mcl-1

Substance | pKd (GST-Mcl-1 [1]) | pKd (GST-Bcl-xL) | pIC50 (GST-Mcl-1 [2])
Bak (fluorescein-labeled Bak peptide) | 6.90 | 7.85 | –
Bim (fluorescein-labeled Bim peptide) | 8.60 | 8.85 | –
Ubiquitin-Noxa fusion protein | – | – | 6.80
